# Assay results reported in US20190135932A1 (Pfizer, published 2019).
# Values joined by “and” are separate entries in the source; they are usually repeats but may differ in a detail not shown here. Identical values can stand only once.
# T1: human OX40R-Ig fusion protein (extracellular domain, amino acids 1-220, of human OX40R fused to the constant … (human, UniProt P43489 29-220))
# T1 construct: range 1-220; Range 1-220 as printed; also called OX40-Ig; OX40-human IgG1 fusion protein; not shown: constant region of human IgG1
# T1 sequence (looked up): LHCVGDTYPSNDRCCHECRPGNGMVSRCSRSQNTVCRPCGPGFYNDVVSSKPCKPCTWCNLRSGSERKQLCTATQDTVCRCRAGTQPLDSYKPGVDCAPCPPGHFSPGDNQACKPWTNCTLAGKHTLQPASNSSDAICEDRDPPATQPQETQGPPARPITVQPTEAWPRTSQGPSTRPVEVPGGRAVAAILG
# T2: human OX40R on activated primary human T cells (human, UniProt P43489 29-277)
# T2 sequence (looked up): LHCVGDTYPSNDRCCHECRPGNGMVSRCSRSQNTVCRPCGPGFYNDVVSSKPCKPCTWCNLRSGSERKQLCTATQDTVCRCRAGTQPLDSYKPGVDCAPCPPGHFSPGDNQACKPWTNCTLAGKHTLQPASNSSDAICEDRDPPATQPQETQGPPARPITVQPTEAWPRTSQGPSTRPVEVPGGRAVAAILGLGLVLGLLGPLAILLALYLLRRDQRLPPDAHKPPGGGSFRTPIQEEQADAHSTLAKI
# T3: commercially available fusion protein containing the extracellular domain of the murine OX40R (mouse, UniProt P47741 20-211)
# T3 construct: extracellular domain; Bought; also called mouse OX40R fusion protein
# T3 sequence (looked up): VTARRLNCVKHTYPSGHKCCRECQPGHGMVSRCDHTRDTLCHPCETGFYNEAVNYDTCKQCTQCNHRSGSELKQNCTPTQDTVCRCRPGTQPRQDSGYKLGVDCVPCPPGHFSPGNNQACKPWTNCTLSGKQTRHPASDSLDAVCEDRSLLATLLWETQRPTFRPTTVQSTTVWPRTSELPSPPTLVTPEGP
# How the values were obtained:
# [1] = biological target: T1, human OX40R-Ig fusion protein …; assay: ELISA on coated OX40-Ig fusion protein
# [2] = biological target: T4, CD271-Ig (Alexis Biochemicals) (human, UniProt P08138 29-250); assay: ELISA on coated receptor-Ig fusion protein
# T4 construct: extracellular domain; Bought; also called nerve growth factor receptor (CD271)
# Protocol: (§1) Maxisorb 96-well plates (Nunc, Roskilde, Denmark) were coated with 100 μl of human TNFα receptor family member fusion proteins at 0.25 μg/ml diluted in BupH™ Carbonate buffer, pH 9.4 (Pierce, Rockford, Ill.) and incubated overnight at 4° C. The selectivity receptor fusion proteins tested included CD40-Ig (Alexis Biochemicals, San Diego, Calif.), CD137-Ig (R&D Systems, Minneapolis, Minn.) and CD271-Ig (Alexis Biochemicals, San Diego, Calif.). Also included as the positive control with each assay was the OX40-Ig fusion protein (in-house construct, Bioexpress, 97/2117). Plates were then washed three times with wash buffer containing 0.05% Tween 20 (Sigma, St Louis, Mo.) diluted in PBS and blocked with 300 μl of 0.5% BSA (Sigma, St Louis, Mo.) in PBS (Sigma, St Louis, Mo.) for 1 hour at RT°. Next, the plates were washed and 100 μl/well of anti-human OX40 reactive antibodies were added to the plates at various concentrations and incubated for 1 hour at RT°. Plates were thoroughly washed three times and OX40R antibody binding was detected with a horse radish peroxidase labeled anti-human kappa chain antibody (Bethyl Laboratories, Montgomery, Tex.) at 25 ng/ml for 1 hour at RD°. Plates were then washed three times which was followed by the addition of 100 μl/well of 1-Step Turbo-TMB substrate (Pierce, Rockford, Ill.) for 30 minutes at RT. The reaction was stopped by adding an equal volume of 2M H₂ SO₄. Absorbance was read at 450 nm on a Molecular Devices Spectra Max 340 (Molecular Devices, Sunnyvale, Calif.).
# [3] = biological target: T5, CD40-Ig (Alexis Biochemicals) (human, UniProt P25942 21-193); assay: ELISA on coated receptor-Ig fusion protein
# T5 construct: extracellular domain; Bought; also called CD40 receptor
# Protocol: as §1
# [4] = biological target: T6, CD137-Ig (R&D Systems) (human, UniProt Q07011 24-186); assay: ELISA on coated receptor-Ig fusion protein
# T6 construct: extracellular domain; Bought; also called 4-1BB receptor (CD137)
# Protocol: as §1
# [5] = biological target: T2, human OX40R on activated primary human …; assay: cell-based or functional assay
# [6] = biological target: T2, human OX40R on activated primary human …; assay: cell-based or functional assay; remark: listed apart in the source
# [7] = biological target: T3, commercially available fusion protein …; assay: ELISA
# [8] = biological target: cynomolgus OX40R on activated cynomolgus monkey T cells / PBMCs (cynomolgus monkey); assay: cell-based or functional assay
# T4 sequence (P08138 29-250): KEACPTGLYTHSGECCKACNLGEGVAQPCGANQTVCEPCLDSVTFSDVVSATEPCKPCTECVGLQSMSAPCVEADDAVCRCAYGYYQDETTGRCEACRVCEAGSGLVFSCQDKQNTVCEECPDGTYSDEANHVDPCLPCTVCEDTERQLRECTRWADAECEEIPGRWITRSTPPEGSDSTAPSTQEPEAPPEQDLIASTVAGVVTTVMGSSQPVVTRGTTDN
# T5 sequence (P25942 21-193): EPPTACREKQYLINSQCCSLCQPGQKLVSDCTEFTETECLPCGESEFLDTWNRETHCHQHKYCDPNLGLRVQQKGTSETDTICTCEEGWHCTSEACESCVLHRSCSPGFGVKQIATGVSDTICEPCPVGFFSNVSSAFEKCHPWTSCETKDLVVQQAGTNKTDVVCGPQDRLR
# T6 sequence (Q07011 whole entry, the tested form may be a part): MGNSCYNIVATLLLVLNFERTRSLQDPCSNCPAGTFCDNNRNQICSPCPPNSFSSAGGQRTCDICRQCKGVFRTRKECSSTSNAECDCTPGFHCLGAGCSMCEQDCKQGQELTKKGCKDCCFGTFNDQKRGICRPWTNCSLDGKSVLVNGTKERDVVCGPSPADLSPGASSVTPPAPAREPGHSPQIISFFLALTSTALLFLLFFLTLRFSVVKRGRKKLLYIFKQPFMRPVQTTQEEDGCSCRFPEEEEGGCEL
binder,measurement,setting,value
"human monoclonal antibody 18D8 (antibody, human IgG2, kappa, V domains shown) VH: EVQLVESGGGLVQPGRSLRLSCAASGFTFDDYAMHWVRQAPGKGLEWVSGISWNSGSIGYADSVKGRFTISRDNAKNSLYLQMNSLRAEDTALYYCAKDQSTADYYFYYGMDVWGQGTTVTVSS VL: EIVVTQSPATLSLSPGERATLSCRASQSVSSYLAWYQQKPGQAPRLLIYDASNRATGIPARFSGSGSGTDFTLTISSLEPEDFAVYYCQQRSNWPTFGQGTKVEIKR",EC50,[1],0.034 µg/mL and 0.23 nM
same,"Selectivity (Binding to CD40, CD137, CD271)",[2],> 700 nM
same,"Selectivity (Binding to CD40, CD137, CD271)",[3],> 700 nM
same,"Selectivity (Binding to CD40, CD137, CD271)",[4],> 700 nM
same,"EC50 of anti-CD3 induced IL-2 production by primary human T cells, donor four",[5],0.024 µg/mL
same,"EC50 of anti-CD3 induced IL-2 production by primary human T cells, donor one",[5],0.024 µg/mL
same,"EC50 of anti-CD3 induced IL-2 production by primary human T cells, donor three",[5],0.013 µg/mL
same,"EC50 of anti-CD3 induced IL-2 production by primary human T cells, donor two",[5],0.135 µg/mL
same,Augmentation of T Cell Activity (EC50): CD3 induced IL-2 production (N = 4),[6],0.049 µg/ml and 0.33 nM
same,Augmentation of T Cell Activity (EC50): Stimulation of IL-2 production by antigen-primed cells (N = 1),[6],0.014 µg/ml and 0.1 nM
"human monoclonal antibody 11D4 (antibody, V domains shown, IgG2 heavy chain, kappa light chain; allotypes G2(n-) and Km3; Alexa Fluor 647 conjugate was used in the species cross-reactivity FACS) VH: EVQLVESGGGLVQPGGSLRLSCAASGFTFSSYSMNWVRQAPGKGLEWVSYISSSSSTIDYADSVKGRFTISRDNAKNSLYLQMNSLRDEDTAVYYCARESGWYLFDYWGQGTLVTVSS VL: DIQMTQSPSSLSASVGDRVTITCRASQGISSWLAWYQQKPEKAPKSLIYAASSLQSGVPSRFSGSGSGTDFTLTISSLQPEDFATYYCQQYNSYPPTFGGGTKVEIKR",Selectivity (binding),[2],> 100 µg/mL and > 700 nM
same,Selectivity (binding),[3],> 100 µg/mL and > 700 nM
same,Selectivity (binding),[4],> 100 µg/mL and > 700 nM
same,binding result,[7],no binding
same,"EC50 of anti-CD3 induced IL-2 production by cynomolgus T cells, donor 2325",[8],0.002 µg/mL
same,"EC50 of anti-CD3 induced IL-2 production by cynomolgus T cells, donor 32081",[8],0.007 µg/mL
same,"EC50 of anti-CD3 induced IL-2 production by cynomolgus T cells, donor 32750",[8],0.007 µg/mL
same,"EC50 of anti-CD3 induced IL-2 production by cynomolgus T cells, donor 32842",[8],0.011 µg/mL
same,"EC50 of anti-CD3 induced IL-2 production by cynomolgus T cells, donor 33062",[8],0.028 µg/mL
same,"EC50 of anti-CD3 induced IL-2 production by cynomolgus T cells, donor 33080",[8],0.031 µg/mL
same,"EC50 of anti-CD3 induced IL-2 production by cynomolgus T cells, donor 33081",[8],0.008 µg/mL
